The source of these data is patent US10822379 (UNIVERSITY OF PITTSBURGH OF THE COMMONWEALTH SYSTEM OF …, dated 2020).

B1: Clone #6 (ab6) (other)
VH: EVQLVESGGGVVQPGRSLRLSCAASGFTFSSYAMHWVRQAPGKGLEWIGNIYHDGSTFYNPSLKSLVTISRDDSTNTLYLQMNSLRAEDTAIYYCARVWLYGSGYMDVWGKGTLVTVSS
notes: also called #6 (VH domain)
B2: Clone #8 (ab8) (other)
VH: EVQLVESGGGLVQPGGSLRLSCAASGFTFDDYAMSWVRQAPGKGLEWIGRMYNNGRTSYNPSLKSLVTISRDNSKNTLYLQMNSLRAEDTATYYCARDNLGYRPSENLYGMDVWGQGTTVTVSS
notes: also called #8 (VH domain)
B3: Clone #9 (ab9) (other)
VH: EVQLVESGGGLVQPGGSLRLSCKGSGFTLSDYYIGWVRQAPGKGLEWIGSMYHSGRTYINPSLKSRVTISRDNSKNTLYLQMNSLRAEDTAVYYCARGGITGTTPIDYWGQGTLVTVSS
notes: also called #9 (VH domain)
B4: Clone #5 (ab5) (other)
VH: KVQLQQWGAGLLKPSETLSLTCAVYGGSFSGYYWSWIRQPPGKGLEWIGEINHSGSTNYNPSLKSRVTISVDTSKNQFSLKLSSVTAADTAVYYCVRLPMIKKSFDIWGPGTLVTVSS
notes: also called #5 (VH domain)
B5: Clone #2 (ab2) (Fab, V domains shown)
VH: QVQLQQSGPGLVKPSQTLSLTCAISGDSVSSNSAAWNWIRQSPSRGLEWLGRTYYRSKWYNDYAVSVKSRITINPDTSKNQFSLQLNSVTPEDTAVYYCAREQQQLVPHYYYYGMDVWGQGTTVTVSS
VL: DVVMTQSPSVSGSPGQSVTISCTGTTSDVGGYNYVSWYQQRPGKAPKLMIYEVSKRPSGVPDRFSGSKSGNTASLTVSGLQAEDEADYYCSSYTSSSTLFGTGTKLTVLG
notes: also called #2 (Fab)
B6: Clone #1 (ab1) (Fab, V domains shown)
VH: EVQLVESGGGLVQPGGSLRLSCAASGFTVSSNYMSWVRQAPGKGLEWVSVIYSGGSTYYADSVKGRFTISRHNSKNTLYLQMNSLRAEDTAVYYCARGYGDYYFDYWGQGTLVTVSS
VL: DVVMTQSPATLSLSPGEKATLSCRASQSVSSYLAWYQQKPGQPPKLLIYWASTRESGVPDRFSGSGSGTDFTLTISSLQAEDVAVYYCQQYGSSPLTFGGGTKVEIKR
notes: also called #1 (Fab)
B7: Clone #7 (ab7) (other)
VH: EVQLVESGGGLVQPGGSLRLSCAASAFDFYDYEMSWVRQAPGKALEWIGEIHHSGSTYYNPSLKGRFTISRDNSKNTLYLQMNSLRAEDTAVYYCAKDVSYHADVWGQGTTVTVSS
notes: also called #7 (VH domain)
B8: Clone #4 (ab4) (scFv)
scFv: EVQLVQSGGGLVQPGGSLRLSCAASGFTFSNYAMTWVRQAPGKGLEWVSTIAGSGDNTYYADSVKGRFTISRDNDKNTLYLQMNSLRADDTAVYYCARDRYYTMDVWGQGTLVTVSSGGGGSGGSGSSGGGSQSVVTQPPSASGSPGQSVTISCTGTSSDVGGYNHVSWYQQHPGKAPKLLIYEVSERPSGVPDRFSGSKSDNKASLTIIGLQTEDEADYYCQSYDSSLSGSLFGTGTKLTVLR
notes: also called #4 (scFv)

The assay deals with RBD of the S protein of SARS-CoV-2 (SARS-CoV-2, UniProt P0DTC2 330-532). Put plainly: ELISA on SARS-CoV-2 RBD.
B1 had a 50% effective concentration (EC50) of 6 nM.
Under B2 stands 25 nM.
As for B3, the figure is 60 nM.
Take B4: the EC50 came to 20 nM.
As for B5, the figure is 2 nM.
The molecule B6 yielded a half-maximal effective concentration (EC50) of 20 nM.
Under B7 stands 4 nM; under B8, 10 nM.
